Reference: US20250011363A1, “OPTIMIZED SHORTENED PEPTIDE THAT BINDS TO ACETYLCHOLINE RECEPTOR, AND USE THEREOF” (SKINMED CO., LTD., priority 2021, published 2025)

target: acetylcholine receptor; assay: SPR, AchR immobilised on chip, peptide 10 uM

In order of rising Binding affinity (RU):
1. KCKMK [5mer-826]  11 RU
2. KDTAR [5mer-840]  11 RU
3. RESDR [5mer-821]  12 RU
4. RYMVK [5mer-848]  12 RU
5. KIDMK [5mer-824]  13 RU
6. RHSMK [5mer-838]  13 RU
7. RFMMR [5mer-835]  14 RU
8. KFDAR [5mer-1129]  14 RU
9. RDEKK [5mer-825]  14 RU
10. KCDGK [5mer-1131]  14 RU
11. RNTDR [5mer-1122]  14 RU
12. RMNIK [5mer-834]  15 RU
13. REWNR [5mer-836]  15 RU
14. RYEDR [5mer-845]  15 RU
15. RDTGK [5mer-1147]  16 RU
16. RAKGK [5mer-822]  16 RU
17. RIADR [5mer-1127]  16 RU
18. RHTAR [5mer-1135]  17 RU
19. KTTPK [5mer-843]  17 RU
20. RFMVR [5mer-1130]  17 RU
21. RMHER [5mer-832]  18 RU
22. KKAGR [5mer-827]  18 RU
23. RATGK [5mer-1143]  19 RU
24. KFSMK [5mer-1132]  19 RU
25. RHNVK [5mer-842]  20 RU
26. KEEEK [5mer-1137]  22 RU
27. KNEMR [5mer-841]  22 RU
28. KCSMK [5mer-1133]  23 RU
29. KPHGR [5mer-1146]  23 RU
30. KYEKR [5mer-1123]  24 RU
31. RAAGK [5mer-831]  24 RU
32. RENHK [5mer-1138]  24 RU
33. KTENK [5mer-1142]  24 RU
34. RDWFR [5mer-1148]  24 RU
35. RIDGK [5mer-830]  25 RU
36. KNSAR [5mer-1136]  25 RU
37. RMPAK [5mer-1145]  25 RU
38. RHHDK [5mer-839]  26 RU
39. REEVR [5mer-1141]  26 RU
40. KCWHR [5mer-829]  26 RU
41. RTCKR [5mer-1134]  26 RU
42. KECFK [5mer-823]  26 RU
43. REWVR [5mer-1128]  26 RU
44. KPTHK [5mer-1126]  26 RU
45. RFCWR [5mer-828]  27 RU
46. KAPEK [5mer-847]  28 RU
47. RPMDR [5mer-837]  28 RU
48. KHCWK [5mer-1139]  28 RU
49. RNEFK [5mer-1140]  28 RU
50. RFKVK [5mer-1121]  29 RU
51. RYPFK [5mer-1125]  29 RU
52. KKPVK [5mer-1124]  30 RU
53. RPDWR [5mer-846]  32 RU
54. KTDPR [5mer-844]  32 RU
55. RPPDR [5mer-1120]  33 RU
56. KATAK [5mer-833]  33 RU
57. KAKNR [5mer-1144]  33 RU
58. RRLFCR [6mer-1-219]  121 RU
59. RKGYTR [6mer-1-209]  121 RU
60. RRLQTR [6mer-1-206]  121 RU
61. KRSIQR [6mer-1-208]  122 RU
62. KKQLLR [6mer-1-211]  123 RU
63. KKQVTR [6mer-1-218]  126 RU
64. KRRVRK [6mer-1-213]  127 RU
65. KKRRRK [6mer-1-223]  133 RU
66. KRWRLR [6mer-1-205]  133 RU
67. KRVLQR [6mer-1-217]  135 RU
68. RKRYSR [6mer-1-215]  136 RU
69. RRSYCK [6mer-1-214]  139 RU
70. KRGFLR [6mer-1-224]  142 RU
71. RRQITR [6mer-1-203]  142 RU
72. RRRVRR [6mer-1-222]  145 RU
73. RKSIQR [6mer-1-216]  148 RU
74. RRRICR [6mer-1-212]  148 RU
75. KRQRQK [6mer-1-220]  148 RU
76. KKWFQR [6mer-1-221]  148 RU
77. KKSQQR [6mer-1-207]  151 RU
78. KKRQRR [6mer-1-204]  154 RU
79. RRQLTK [6mer-1-202]  154 RU
